The supplement of paper PMC10126150
± gives the standard deviation of the averaged measurements.

These sequences were tested on ATP (assay: switch fluorescence ratio, 500 uM ATP over buffer (Cy3 cluster intensity, sum of 5 cycles each) (fold (ratio)); higher = stronger signal-on switching upon ATP binding; sequences stand for … in TCGTCGGCAGCGTCAGATGTGTATAAGAGACAGTTTTTTTTTTTTTTTTTTTTTTTTT…TC). Settings: aptamer strand: ATP DNA aptamer (quencher-CACCTGGGGGAGTATTGCGGAGGAAGG + anchor), 100 nM annealed; ATP concentration: 500 uM.
How it was run: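 Exposure to 500 uM ATP lasted 15 min at 22 °C before imaging, and a selection-buffer image was taken beforehand, for Cy3-labelled switching-strand clusters on a modified Illumina MiSeq flow-cell annealed to 100 nM quencher-labelled ATP aptamer. Five buffer/ATP cycles were run with NaOH stripping and re-annealing between them. The fluorescence ratio per cluster is summed target-cycle over summed buffer-cycle Cy3 intensity, averaged per switch-domain sequence. Clusters outside 100-1000 RFU were excluded.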

In order of falling switch fluorescence ratio:
1. AATCGAGTCC  1.107 ± 0.011
2. AATCGGGTGT  1.11 ± 0.047
3. AATCGGAGCT  1.09 ± 0.026
4. AATGGAAGGC  1.09 ± 0.07
5. AATCGGATAA  1.05 ± 0.019
6. AATGCTTGAG  1.05 ± 0.08
7. AATCAAGAGT  1.028 ± 0.0031
8. AATGGGTTCC  1.027 ± 0.0044
9. AATATAGGTA  1.02 ± 0.011
10. AATATGTGTT  1.02 ± 0.031
11. AATATTTTGA  1.02 ± 0.016
12. AATCACGGAG  1.019 ± 0.0061
13. AATGAACTCT  1.02 ± 0.034
14. AATGCCTTTG  1.02 ± 0.035
15. AATGGCATCG  1.02 ± 0.011
16. AATGGGGGTT  1.02 ± 0.037
17. AATGGGTTGT  1.02 ± 0.032
18. AATAGTTTCA  1.01 ± 0.014
19. AATATAGAGA  1.01 ± 0.011
20. AATATTATGA  1.01 ± 0.012
21. AATCCGTGTG  1.01 ± 0.019
22. AATCGGCACG  1.01 ± 0.02
23. AATCGGGGGA  1.01 ± 0.048
24. AATCGTGGTA  1.01 ± 0.029
25. AATGAATAGA  1.012 ± 0.008
26. AATGCAACTT  1.01 ± 0.032
27. AATGCTCGTA  1.01 ± 0.023
28. AATGGGGATT  1.01 ± 0.035
29. AATGTGCCGG  1.01 ± 0.019
30. AATAGTGGTG  1 ± 0.022
31. AATCATAGTT  1 ± 0.014
32. AATCATGGTT  1 ± 0.028
33. AATCCAATGT  1.003 ± 0.0069
34. AATCGAGGGA  1 ± 0.027
35. AATCGGGTTG  1 ± 0.019
36. AATCTGTGAA  1 ± 0.012
37. AATGAGTGGG  1 ± 0.041
38. AATGGAAATC  1.003 ± 0.0086
39. AATGGGCACA  1 ± 0.042
40. AATGGTACGA  1 ± 0.035
41. AATGGTTAAG  1 ± 0.054
42. AATGTCGCTG  1.003 ± 0.0018
43. AATGTTTGCT  1 ± 0.018
44. AATTAAGAGG  1 ± 0.011
45. AATATATTTT  0.999 ± 0.047
46. AATATAGTAT  0.998 ± 0.034
47. AATGGGTTCT  0.998 ± 0.079
48. AATGAGGCTT  0.996 ± 0.011
49. AATGGCGGGT  0.996 ± 0.034
50. AATGGCTCGC  0.996 ± 0.061
51. AATGTGGGGG  0.996 ± 0.018
52. AATGAGGGAG  0.995 ± 0.01
53. AATCGTCTGG  0.993 ± 0.019
54. AATGGGCTAG  0.993 ± 0.059
55. AATGGTCATG  0.993 ± 0.075
56. AATGGTGTAA  0.99259 ± 0.00066
57. AATGGCGCGC  0.992 ± 0.017
58. AATGGGTTAT  0.992 ± 0.025
59. AATGGTTTTG  0.9921 ± 0.0034
60. AATCTGGGTA  0.991 ± 0.016
61. AATGAGTCG  0.991 ± 0.028
62. AATGAGTTTG  0.991 ± 0.019
63. AATGTGTATG  0.991 ± 0.033
64. AATATTGAAC  0.99 ± 0.036
65. AATGTTAGAA  0.99 ± 0.05
66. AATGTGCATA  0.988 ± 0.011
67. AATCTCGGCC  0.986 ± 0.015
68. AATGATGCCG  0.9864 ± 0.008
69. AATATGGCCG  0.985 ± 0.037
70. AATGGGTCTA  0.985 ± 0.02
71. AATATAGAAG  0.984 ± 0.033
72. AATATTTAGA  0.9837 ± 0.0059
73. AATGGGGATC  0.984 ± 0.062
74. AATGGTGCGC  0.984 ± 0.017
75. AATGTCTTTG  0.984 ± 0.013
76. AATGCAGAGT  0.983 ± 0.012
77. AATCTTCTGT  0.982 ± 0.04
78. AATCATGTTG  0.981 ± 0.033
79. AATGAACGGG  0.981 ± 0.0089
80. AATGAATGGG  0.981 ± 0.018
81. AATGCTCGGA  0.981 ± 0.02
82. AATTAATGAT  0.981 ± 0.029
83. AATCGGTTCT  0.979 ± 0.05
84. AATGGGTCTG  0.978 ± 0.052
85. AATGATTTTG  0.9765 ± 0.0065
86. AATGTGAGGG  0.9772 ± 0.0092
87. AATGTGCCCA  0.9775 ± 0.007
88. AATGTTTCGG  0.977 ± 0.022
89. AATGTTTGAC  0.977 ± 0.038
90. AATGAATTTG  0.975 ± 0.043
91. AATGTCTAGA  0.975 ± 0.023
92. AATATTGTGG  0.974 ± 0.019
93. AATGACTCGT  0.974 ± 0.01
94. AATATAGGAC  0.972 ± 0.013
95. AATGCGGTTC  0.9709 ± 0.0026
96. AATAGGGTTT  0.967 ± 0.011
97. AATAGTATAG  0.966 ± 0.02
98. AATATGCAGG  0.9657 ± 0.0034
99. AATCCGGGGG  0.9661 ± 0.0022
100. AATCGGTTGG  0.966 ± 0.019
